The source of these data is PMC4988983.

The term stoichiometry N denotes the number of molecules, sites or subunits per partner or assembly.

Experiment [1] deals with 2-Cys peroxiredoxin from Anabaena sp. PCC 7120 (Anabaena sp. PCC 7120 (endogenous in Anabaena cells)). In words: non-reducing SDS-PAGE with Western blot; soluble extracts of Anabaena WT and ΔntrC cells treated with H2O2, methyl viologen or high light; dimer and monomer bands of 2-Cys Prx. For orientation: In western blotting, separated proteins are transferred to a membrane and probed.

Experiment [2] shares this target. In words: SEC; soluble extracts (200 µg total protein) of untreated Anabaena cells (0 h) on Superdex 200 HR 10/30, 50 mM KH2PO4 pH 7.1, 150 mM NaCl, 0.5 ml/min; fractions read by Western blot. (SEC sorts molecules by how far they enter the pores of the column.)
For experiment [3], the target named is NADPH-thioredoxin reductase C from Anabaena sp. PCC 7120 (Anabaena sp. PCC 7120 (endogenous in Anabaena cells)). The experiment is described as above.

Consider “2-Cys peroxiredoxin from Anabaena sp. PCC 7120 (enzyme)”, for which the stoichiometry N in experiment [1] and in experiment [2] was 2 each time.

As for “NADPH-thioredoxin reductase C from Anabaena sp. PCC 7120 (enzyme)”, the stoichiometry N in experiment [3] is 2.
